Laboratory results reported in PMC5739537, “Computationally-driven identification of antibody epitopes” (eLife, 2017).
One block for each binder: values may come before it.

Molecular target: T1, B7H6 (wild type) (human, UniProt Q68D85)
T1 construct: B7H6, human tumor antigen; complete extracellular and transmembrane domains; The results call it the full-length transmembrane protein, the methods complete extracellular and transmembrane domains; also called WT B7H6; WT Ag; source: HEK-293F, transfected (pPPI4 surface expression vector, polyethyleneimine), on the cell surface
T1 sequence (Q68D85 25-262): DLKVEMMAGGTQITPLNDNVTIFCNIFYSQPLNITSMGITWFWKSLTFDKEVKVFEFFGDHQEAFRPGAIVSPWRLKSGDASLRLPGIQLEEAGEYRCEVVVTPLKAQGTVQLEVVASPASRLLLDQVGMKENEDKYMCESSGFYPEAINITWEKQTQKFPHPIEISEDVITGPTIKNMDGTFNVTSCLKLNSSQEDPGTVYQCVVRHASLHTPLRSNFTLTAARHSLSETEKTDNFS
Assay: flow cytometry on cells; HEK-293F cells expressing WT B7H6 or designed variants, 2.5x10^5 cells/well; 100 nM TZ47, PB11 scFv-Fc or NKp30-Ig for 1 hr in PBS + 0.1% BSA; Anti-Mouse-AlexaFluor488 or Anti-Hu-AlexaFluor647 secondary Abs; integrated MFI normalised to NKp30-Ig binding and to WT B7H6; triplicate wells
Settings: one partner purified

binding result: binds
B1: TZ47 (antibody, V domains shown)
VH: QVQLQQSGAELMKPGASVKLSCKATGYTFTGYWIEWIKQRPGHGLEWIGEILPGTGSTNYNEKFKGKATFTADTSSNTAYMQLSSLTTEDSAIYYCAIPGPMDYWGQGTSVTVSS
VL: DIKMTQSPSSMYASLGERVTITCKASQDINSYLSWFQQKPGKSPKTLIYRANRLVDGVPSRFSGSGSGQDYSLTISSLEYEDMGIYYCLQYDEFPYTFGGGTKLEIK
notes: Murine antibody; detected with an anti-mouse AlexaFluor488 secondary antibody

binding result: binds
B2: PB11 scFv-Fc (scFv, V domains shown)
VH: QVQLVQSGAEVKKPGASVKISCKASGYTLGTYTLHWMRQAPGQRIEWMGWINPGNGYTKYSQRFQGRVTINRDTSATTTYMELSSLRSEDTAVYFCATDRAPVRRAFDIWGQGTMVTVSS
VL: QSVLTQPASVSGSPGQSVTISCTGTSSDIGSYKFVSWYQHHPGKAPKLMIYDVTQRPSGVPYRFSGSKSGNTASLTISGLQAEDEADYYCCSYAGDYTYALFGGGTQLTVL
notes: Used as scFv-Fc in the staining
